Data: patent US20190367625A1, “AMHRII-BINDING COMPOUNDS FOR PREVENTING OR TREATING CANCERS” (GAMAMABS PHARMA, priority 2017, published 2019)
Entries after “also recorded” stand apart in the source; their conditions may differ.

What was measured:
[1] = Body weight and tolerability in LI1097 tumor-bearing mice; type: in vivo; conditions: for body weight loss observed in treated mice: mean; for tolerability / toxic events (in words): LI1097 tumor-bearing mice, antibody 20 and 50 mg/kg i.v., sorafenib 50 mg/kg p.o.
Experimental: When individual mouse has a body weight loss ≥20%, the mouse will be given dosing holiday(s) until its body weight recovers to the baseline.
All the procedures related to animal handling, care, and the treatment in this study were performed according to guidelines approved by the Institutional Animal Care and Use Committee (IACUC) of CrownBio following the guidance of the Association for Assessment and Accreditation of Laboratory Animal Care (AAALAC). At the time of routine monitoring, the animals were checked for any effects of tumor growth on normal behavior such as mobility, food and water consumption (by looking only), body weight gain/loss, eye/hair matting and any other abnormal effect. Death and observed clinical signs were recorded on the basis of the numbers of animals within each subset.
Under following conditions, the in-life experiment of individual animal or whole groups will be terminated, by humane euthanization, prior to death, or before reaching a comatose state. • In a continuing deteriorating condition with severe clinical signs of severe distress and/or pain, inaccessible to adequate food or water; • Significant body mass (emaciated) (>20%); • Individual mouse with tumor size exceeding 3000 mm^3 or MTV>2000 mm^3.

[2] = tested on: HuPrime® HCC xenograft model LI1097; test: Efficacy study in HuPrime HCC xenograft model LI1097 (tumor volume, TGI, T/C, T-C); type: in vivo, BALB/c nude mice; conditions: for Tumor Volume: mean ± SEM; for anti-tumor activity against HCC xenograft (in words): LI1097, compared with sorafenib
Excerpt: To evaluate preclinically the in vivo efficacy of GamaMabss' anti-AMHR2 monoclonal antibody, named GM102 in the treatment of Huprime® HCC xenograft model LI1097 in Balb/C nude mice. The model LI1097 was selected after a screening for AMHR2 transcription processed by CrownBio, using RNAseq (transcriptome sequencing). Further, AMHR2 membranous protein expression of this model was confirmed by Institut Curie, France, using IHC.
• Strain: BALB/c Nude • Age: 7-8 weeks (Treatment starting) • Gender: female • Total #: 32 mice plus spare
• HuPrime® Liver cancer model L11097 derived from a HCC patient was selected for this efficacy study. This model reached 1000 mm^3 in 20-25 days post inoculation.
• Product identification: GamaMabs's Ab (3C23K) • Manufacturer: GamaMabs Pharma • Lot number: R18H2-LP01 • Batch: 04GAM140513API • Quantity needed: 255 mg based on animal BW of 25 g with 50% spare • Package and storage condition: [30 ml/tube], 30 ml, [2-8° C.] • Concentration: 10.1 g/L • Product identification: Sorafenib • Manufacturer: Melonepharma • Lot number: D1111A • Quantity needed: 300 mg based on animal BW of 25 g with 50% spare • Package and storage condition: 400 mg, [RT]
Tumor fragments from stock mice inoculated with selected primary human cancer tissues were harvested and used for inoculation into BALB/c nude mice. Each mouse was inoculated subcutaneously at the right flank with primary human HCC model LI1097 fragment (R12P4, 2-4 mm in diameter) for tumor development on Jun. 9, 2015. The parent mouse number was #80150. #80151 and #80153. The mice were grouped when the average tumor size reached about 145 mm^3 on Jun. 24, 2015. Mice were allocated randomly into 4 experimental groups according to their tumor sizes. Each group consisted of 8 mice, 4 mice per cage. The day was denoted as day 0. The test articles were administered to the tumor-bearing mice from day 0 (Jun. 24, 2015) through day 27 (Jul. 21, 2015) according to pre-determined regimen shown in Section 1.1 Experimental Design.
Tumor size were measured twice weekly in two dimensions using a caliper, and the volume is expressed in mm^3 using the formula: TV=0.5 a×b^2, where a and b are the long and short diameters of the tumor, respectively. The tumor size is then used for calculations of TGI, T/C, and T-C values according to the description in the Table 2 in Abbreviations.
The study was ended after 28 days treatment and mice were sacrificed.
Summary statistics, including mean and the standard error of the mean (SEM), are provided for the tumor volume of each group at each time point. Statistical analysis of difference in tumor volume among the groups was evaluated using a one-way ANOVA followed by multiple comparisons using Games-Howell. All data were analyzed using SPSS 16.0. P<0.05 was considered to be statistically significant.

[3] = molecular target: T1, AMHRII (form used for the Kd not stated) (human, UniProt Q16671 18-149, limits assumed)
T1 construct: Neither the construct nor the assay behind the Kd is described

[4] = tested on: Champions TumorGraft® model CTG-0401 (human colorectal cancer); test: Efficacy study in model CTG-0401 of human colorectal cancer; type: in vivo, Athymic Nude-Foxn1nu mice; conditions: 20 mg/kg IP BIWx4; comparator Irinotecan 100 mg/kg IP Q7Dx3; listed as GM102
Experimental: Stock mice (Athymic Nude-Foxn1^nu from Envigo) were implanted with tumor fragments from Champions TumorGraft® model CTG-0401. After the tumors reached 1000-1500 mm^3, they were harvested and the tumor fragments were implanted SC in the left flank of the female study mice. Each animal was implanted with a specific passage lot: passage 6 for CTG-0401. Tumor growth was monitored twice a week using digital calipers and the tumor volume (TV) was calculated using the formula (0.52×[length×width^2]). After the tumor volume reached 175±7 mm^3, mice were selected based on their tumor size and were randomly allocated into 4 groups of 12 animals per group (Day 0). After the initiation of dosing on Day 0, animals were weighed twice per week using a digital scale and TV was measured twice per week and also on the final day of study. The study was terminated when the mean tumor volume in the vehicle control group reached 1500 mm^3 or up to Day 60, whichever occurred first.

[5] = 50 mg/kg, QD × 4 weeks, p.o., day 13
[6] = 20 mg/kg, BIW × 4 weeks, i.v., day 13
[7] = 50 mg/kg, BIW × 4 weeks, i.v., day 13

T1 sequence (Q16671 18-149 limits assumed): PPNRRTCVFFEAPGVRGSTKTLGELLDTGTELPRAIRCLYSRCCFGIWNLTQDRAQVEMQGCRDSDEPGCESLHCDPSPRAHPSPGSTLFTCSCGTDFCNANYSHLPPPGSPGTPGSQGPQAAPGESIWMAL

## CNC(=O)c1cc(Oc2ccc(NC(=O)Nc3ccc(Cl)c(C(F)(F)F)c3)cc2)ccn1 [Sorafenib, reference compound]
[1]; 50 mg/kg, QD × 4 weeks, p.o.
  body weight change at study termination: −7.63%
  body weight loss observed in treated mice: 7%
[1]; 50 mg/kg, QD × 4 weeks, p.o., day 27 of treatment
  mean maximum body weight loss: 7.63%
[1]; 50 mg/kg, QD × 4 weeks, p.o., listed as sorafenib
  body weight loss observed in treated mice: up to 7%
[2]; 50 mg/kg, QD × 4 weeks, p.o.
  T-C (days) at 1000 mm^3: 8 days
[2]; 50 mg/kg, QD × 4 weeks, p.o., day 0
  Tumor Volume: 145.18 ± 16.97 mm^3
[2]; 50 mg/kg, QD × 4 weeks, p.o., day 2
  Tumor Volume: 321.35 ± 45.66 mm^3
[2]; 50 mg/kg, QD × 4 weeks, p.o., day 6
  Tumor Volume: 493.84 ± 65.13 mm^3
[2]; 50 mg/kg, QD × 4 weeks, p.o., day 9
  Tumor Volume: 695.20 ± 66.81 mm^3
[2]; [5]
  T/C (%): 35.1%
  TGI (%): 64.9%
  Tumor Volume: 891.50 ± 103.33 mm^3
[2]; 50 mg/kg, QD × 4 weeks, p.o., day 16
  Tumor Volume: 1135.40 ± 133.62 mm^3
[2]; 50 mg/kg, QD × 4 weeks, p.o., day 20
  Tumor Volume: 1478.84 ± 189.62 mm^3
[2]; 50 mg/kg, QD × 4 weeks, p.o., day 23
  Tumor Volume: 1627.4 ± 202.91 mm^3
[2]; 50 mg/kg, QD × 4 weeks, p.o., day 27
  Tumor Volume: 1829.66 ± 256.4 mm^3

B1: 3C23K anti-AMHRII monoclonal antibody (antibody, human IgG1, kappa, V domains shown)
VH: QVRLVQSGAEVKKPGASVKVSCKASGYTFTSYHIHWVRQAPGQRLEWMGWIYPGDDSTKYSQKFQGRVTITRDTSASTAYMELSSLRSEDTAVYYCTRGDRFAYWGQGTLVTVSS
VL: DIQMTQSPSTLSASVGDRVTITCRASSSVRYIAWYQQKPGKAPKLLTYPTSSLKSGVPSRFSGSGSGTEFTLTISSLQPDDFATYYCLQWSSYPWTFGGGTKVEIKR
notes: Humanized antibody; also called GM102; GamaMabs's Ab
[3]
  Kd: 0.0553 nM

B2: 3C23K: humanized anti-AMHRII monoclonal antibody; VH SEQ ID NO 19, VL SEQ ID NO 36 (antibody, V domains shown)
VH: QVRLVQSGAEVKKPGASVKVSCKASGYTFTSYHIHWVRQAPGQRLEWMGWIYPGDDSTKYSQKFQGRVTITRDTSASTAYMELSSLRSEDTAVYYCTRGDRFAYWGQGTLVTVSS
VL: DIQMTQSPSTLSASVGDRVTITCRASSSVRYIAWYQQKPGKAPKLLTYPTSSLKSGVPSRFSGSGSGTEFTLTISSLQPDDFATYYCLQWSSYPWTFGGGTKVEIK
modifications: Synthetic 3C23K/3C23; Synthetic 3C23K
[4]
  in vivo anti-tumor effect against AMHRII-expressing human colorectal tumor (in words, FIG. 10): efficient in vivo anti-tumor effect; also recorded: indistinguishable from the anti-tumor effect of the mainly used anti-colon cancer molecule Irinotecan
[1]; 20 mg/kg, BIW × 4 weeks, i.v.
  body weight change at study termination: 2.68%
[1]; 50 mg/kg, BIW × 4 weeks, i.v.
  body weight change at study termination: -0.38%
[1]
  tolerability / toxic events (in words): no detectable toxic event
[1]; listed as GM102
  tolerability / toxic events (in words): not accompanied by any toxic event
[1]; listed as GamaMabs's Ab
  tolerability / toxic events (in words): No animal death or significant body weight loss; also recorded: well tolerated
[2]; 20 mg/kg, BIW × 4 weeks, i.v.
  T-C (days) at 1000 mm^3: 3 days
[2]; 20 mg/kg, BIW × 4 weeks, i.v., day 0
  Tumor Volume: 145.15 ± 16.79 mm^3
[2]; 20 mg/kg, BIW × 4 weeks, i.v., day 2
  Tumor Volume: 358.57 ± 51.86 mm^3
[2]; 20 mg/kg, BIW × 4 weeks, i.v., day 6
  Tumor Volume: 665.09 ± 85.00 mm^3
[2]; 20 mg/kg, BIW × 4 weeks, i.v., day 9
  Tumor Volume: 952.12 ± 171.45 mm^3
[2]; [6]
  T/C (%): 48.7%
  Tumor Volume: 1179.90 ± 232.26 mm^3
[2]; 20 mg/kg, BIW × 4 weeks, i.v., day 13, listed as GamaMabs's Ab
  TGI (%): 51.3%
[2]; 20 mg/kg, BIW × 4 weeks, i.v., day 16
  Tumor Volume: 1479.51 ± 292.49 mm^3
[2]; 20 mg/kg, BIW × 4 weeks, i.v., day 20
  Tumor Volume: 1973.13 ± 372.07 mm^3
[2]; 20 mg/kg, BIW × 4 weeks, i.v., day 23
  Tumor Volume: 1814.59 ± 231.17 mm^3
[2]; 20 mg/kg, BIW × 4 weeks, i.v., day 27
  Tumor Volume: 2081.67 ± 213.28 mm^3
[2]; 50 mg/kg, BIW × 4 weeks, i.v.
  T-C (days) at 1000 mm^3: 5 days
[2]; 50 mg/kg, BIW × 4 weeks, i.v., day 0
  Tumor Volume: 145.24 ± 16.38 mm^3
[2]; 50 mg/kg, BIW × 4 weeks, i.v., day 2
  Tumor Volume: 297.78 ± 46.32 mm^3
[2]; 50 mg/kg, BIW × 4 weeks, i.v., day 6
  Tumor Volume: 532.71 ± 104.17 mm^3
[2]; 50 mg/kg, BIW × 4 weeks, i.v., day 9
  Tumor Volume: 751.81 ± 176.15 mm^3
[2]; [7]
  T/C (%): 45.7%
  Tumor Volume: 1117.12 ± 302.85 mm^3
[2]; 50 mg/kg, BIW × 4 weeks, i.v., day 13, listed as GamaMabs's Ab
  TGI (%): 54.3%
[2]; 50 mg/kg, BIW × 4 weeks, i.v., day 16
  Tumor Volume: 1476.74 ± 407.93 mm^3
[2]; 50 mg/kg, BIW × 4 weeks, i.v., day 20
  Tumor Volume: 1602.61 ± 481.85 mm^3
[2]; 50 mg/kg, BIW × 4 weeks, i.v., day 23
  Tumor Volume: 1148.22 ± 381.49 mm^3
[2]; 50 mg/kg, BIW × 4 weeks, i.v., day 27
  Tumor Volume: 1454.47 ± 479.27 mm^3
[2]
  anti-tumor activity against HCC xenograft (in words): of the same order of magnitude as sorafenib
[2]; listed as GamaMabs's Ab
  anti-tumor activity against HCC xenograft (in words): close to that induced by sorafenib
